From FireProtDB (doi:10.1038/9384)

B1: Acyl-CoA-binding protein, P07107 (parent)
chain: MSQAEFDKAAEEVKHLKTKPADEEMLFIYSHYKQATVGDINTERPGMLDFKGKAKWDAWNELKGTSKEDAMKAYIDKVEELKKKYGI

Variants of: B1
Settings: Bos taurus; pH 5.3; 5 °C; GdnHCl; Fluorescence; Sodium acetate 0.02 M; structure 2ABD; whole UniProt chain shown

| Variant | ddG of mutation (higher = less stable) [kcal/mol] | denaturant m value [kcal/mol/M] | unfolding free energy [kcal/mol] |
| --- | --- | --- | --- |
| V78A | 1.54 | 3.78 | 6.54 |
| K53M | -0.48 | 3.71 | 8.56 |
| A10G | 2 | 3.4 | 6.08 |
| Y32N | 0.97 | 4.95 | 7.11 |
| L81A | 4.57 | 3.08 | 3.51 |
| D22A | 0.4 | 3.32 | 7.68 |
| I75A | 1.34 | 3.91 | 6.74 |
| L16A | 3.57 | 3.19 | 4.51 |
| I40A | 1.06 | 3.51 | 7.02 |
| K55A | 1.41 | 3.15 | 6.67 |
| K55M | 0.22 | 3.33 | 7.86 |
| F27A | 1.53 | 3.8 | 6.55 |
| T36A | 1.28 | 3.93 | 6.8 |
| V13A | 1.5 | 3.47 | 6.58 |
| Y74F | -0.03 | 3.31 | 8.11 |
| K33A | 1.61 | 3.39 | 6.47 |
| K33E | 1.47 | 3.42 | 6.61 |
| P20A | 0.91 | 3.3 | 7.17 |
| E68A | 0.8 | 3.45 | 7.28 |
| L26A | 2.02 | 3.36 | 6.06 |
| F6A | 2.63 | 3.51 | 5.45 |
| Y29F | 1.26 | 3.56 | 6.82 |
| Y29N | 2.47 | 3.65 | 5.61 |
| Y29A | 2.52 | 3.97 | 5.56 |
| Q34A | 3.03 | 4.49 | 5.05 |
